Experimental findings from patent US20110250130A1 (AbbVie / Abbott, published 2011) are described below.

In assay [1] the target is T1, Recombinant Human TNF-α/TNFSF1A (human, UniProt P01375 77-233). Put plainly: cell-based or functional assay.
For assay [2], the target named is T1, Recombinant Human TNF-α/TNFSF1A. Kind of assay: SPR (Biacore), antibody captured, TNF-α in solution. The procedure: The BIACORE assay (Biacore, Inc. Piscataway, N.J.) determines the affinity of antibodies with kinetic measurements of on-rate and off-rate constants. Binding of antibodies to a target antigen (for example, a purified recombinant target antigen) is determined by surface plasmon resonance-based measurements with a Biacore® 1000 or 3000 instrument (Biacore® AB, Uppsala, Sweden) using running HBS-EP (10 mM HEPES [pH 7.4], 150 mM NaCl, 3 mM EDTA, and 0.005% surfactant P20) at 25° C. All chemicals are obtained from Biacore® AB (Uppsala, Sweden) or otherwise from a different source as described in the text. For example, approximately 5000 RU of goat anti-mouse IgG, (Fcγ), fragment specific polyclonal antibody (Pierce Biotechnology Inc, Rockford, Ill., US) diluted in 10 mM sodium acetate (pH 4.5) is directly immobilized across a CM5 research grade biosensor chip using a standard amine coupling kit according to manufacturer's instructions and procedures at 25 μg/ml. Unreacted moieties on the biosensor surface are blocked with ethanolamine. Modified carboxymethyl dextran surface in flowcell 2 and 4 is used as a reaction surface. Unmodified carboxymethyl dextran without goat anti-mouse IgG in flow cell 1 and 3 is used as the reference surface. For kinetic analysis, rate equations derived from the 1:1 Langmuir binding model are fitted simultaneously to association and dissociation phases of all eight injections (using global fit analysis) with the use of Biaevaluation 4.0.1 software. Purified antibodies are diluted in HEPES-buffered saline for capture across goat anti-mouse IgG specific reaction surfaces. Antibodies to be captured as a ligand (25 μg/ml) are injected over reaction matrices at a flow rate of 5 μl/minute. The association and dissociation rate constants, kₒₙ (M⁻¹s⁻¹) and koff (s⁻¹), are determined under a continuous flow rate of 25 μl/minute. Rate constants are derived by making kinetic binding measurements at different antigen concentrations ranging from 10-200 nM. The equilibrium dissociation constant (M) of the reaction between antibodies and the target antigen is then calculated from the kinetic rate constants by the following formula: KD=koff/kₒₙ. Binding is recorded as a function of time and kinetic rate constants are calculated. In this assay, on-rates as fast as 10⁶ M⁻¹s⁻¹ and off-rates as slow as 10⁻⁶ s⁻¹ can be measured.

T1 sequence (P01375 77-233 limits assumed): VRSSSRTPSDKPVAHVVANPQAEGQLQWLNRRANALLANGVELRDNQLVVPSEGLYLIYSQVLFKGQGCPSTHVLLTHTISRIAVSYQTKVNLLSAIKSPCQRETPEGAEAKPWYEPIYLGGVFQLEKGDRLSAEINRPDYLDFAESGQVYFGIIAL

B1: AB259 (antibody, V domains shown)
VH: EVQLVESGGGLVQPGGSLRLSCAVSGFTLSDYGVNWVRQAPGKGLEWLGMIWGDGSTDYDSTLKSRLTISKDNSKSTIYLQMNSLRAEDTAVYYCAREWHHGPVAYWGQGTLVTVSS
VL: EIVMTQSPATLSLSPGERATLSCKASQAVSSAVAWYQQKPGQSPRLLIYWASTRHTGVPARFSGSGSGTDFTLTISSLQPEDFAVYYCQQHYSTPFTFGQGTKLEIK
notes: also called hMAK195VH.2a / hMAK195VL.2a
In general, Kd refers to the equilibrium constant for the complex coming apart. The koff is the rate constant with which the complex falls apart. A word on the kon: it is the rate constant with which the complex forms. For the molecule B1, the “TNF-α neutralization assay IC50 (nM), L929 cells” value in assay [1] was determined as 0.071 nM. For the same molecule, in assay [2], the Kd was found to be 0.0677 nM, the koff amounted to 0.000203 s⁻¹ and the kon is 3e+06 M⁻¹ s⁻¹.

B2: AB263 (antibody, V domains shown)
VH: EVQLVESGGGLVQPGGSLRLSCAASGFTLSDYGVNWVRQAPGKGLEWVSMIWGDGSTDYDSTLKSRFTISKDNSKNTLYLQMNSLRAEDTAVYYCAREWHHGPVAYWGQGTLVTVSS
VL: EIVMTQSPATLSLSPGERATLSCKASQAVSSAVAWYQQKPGQSPRLLIYWASTRHTGVPARFSGSGSGTDFTLTISSLQPEDFAVYYCQQHYSTPFTFGQGTKLEIK
notes: also called hMAK195VH.2b / hMAK195VL.2a
As for B2, in assay [1], the “TNF-α neutralization assay IC50 (nM), L929 cells” value worked out at 0.193 nM. In assay [2], the Kd stood at 0.169 nM, the koff turned out to be 0.000273 s⁻¹ and the kon was found to be 1.61e+06 M⁻¹ s⁻¹.
